This passage reports % of events in Q2 (Expression-FITC positive, Binding-PE positive), + PSR and % of beads in quadrant Q2 (Binding-PE positive), + PSR results from patent publication US20240360223A1.

For test [1], the target named is poly-specificity reagent (PSR). The experiment in a line: flow cytometry PSR assay: test article on Protein A beads, biotinylated PSR, read-out with SA-PE. On the technique in general: In flow cytometry, cells or beads pass a laser one at a time.
Test [2] has as its target poly-specificity reagent (PSR). The experiment in a line: flow cytometry PSR assay: test article on protein A beads, biotinylated PSR detected with streptavidin-PE.
Test [3] has as its target poly-specificity reagent (PSR). The experiment in a line: PSR assay: protein on protein A coated beads, biotinylated PSR, SA-PE, flow cytometry; + PSR panel (Q2 is 0 in the No PSR panel FIG. 43E).

Rituximab (antibody): the % of events in Q2 (Expression-FITC positive, Binding-PE positive), + PSR in test [1] worked out at 56.2%.

On to trastuzumab (antibody), for which the results for the % of events in Q2 (Expression-FITC positive, Binding-PE positive), + PSR in test [2] and in test [1] were 0.067% and 0.087%, respectively.

Regarding Ixekuzumab (antibody), the % of beads in quadrant Q2 (Binding-PE positive), + PSR in test [3] was determined as 27.1%.

Ixekizumab (antibody): the % of events in Q2 (Expression-FITC positive, Binding-PE positive), + PSR in test [1] stood at 79.6%.

Turning to “Ixekizumab (PSR positive control) (antibody)”, the % of events in Q2 (Expression-FITC positive, Binding-PE positive), + PSR in test [2] came to 79.6%.
